The labels stand for the following.
B5: Taf14ET (extra-terminal domain of Taf14, aa 168-243) (domain or fragment, S. cerevisiae, UniProt P35189 168-243, looked up)
chain: GSASTVKGSVDLEKLAFGLTKLNEDDLVGVVQMVTDNKTPEMNVTNNVEEGEFIIDLYSLPEGLLKSLWDYVKKNT
notes: Taf14, S. cerevisiae, UniProt P35189, ET domain, aa 168-243; Uniformly 15N-labelled for NMR; also called ET domain of Taf14

One series concerns the target T1, Taf14ET (Saccharomyces cerevisiae, UniProt P35189).
T1 construct: Taf14ET (aa 168-243); His; made in house; host or cells: Escherichia coli Rosetta-2 (DE3) pLysS
T1 sequence (P35189 168-243): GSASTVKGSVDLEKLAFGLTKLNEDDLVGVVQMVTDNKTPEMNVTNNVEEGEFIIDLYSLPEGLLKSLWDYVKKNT
Briefly: NMR 1H,15N HSQC titration (chemical shift perturbations), Taf14ET. Format: binding. To be noted: 15N-labelled Taf14ET, 298 K, increasing amounts of mutated peptide. The protocol: Nuclear magnetic resonance experiments were performed at 298 K on Varian INOVA 900 MHz (for Taf14FL) and 600 MHz (for Taf14ET and Taf14YEATS) spectrometers equipped with cryogenic probes as described. The NMR samples contained 0.05–0.2 mM uniformly ^15N-labeled Taf14 proteins in 50 mM Tris-HCl (pH 6.8–7.5), 150 mM NaCl, 0–5 mM DTT or 1x PBS (pH 6.6–7.5), supplemented with up to an additional 100 mM NaCl, 0–5 mM DTT or 0.2 mM TCEP and 8-10% D2O. Binding was characterized by monitoring chemical shift changes in ^1H,^15N HSQC spectra of the proteins induced by the addition of wild type or mutated Yng1EBM (aa 113-124), Sas3EBM (aa 111-122) and Yng1EBM-PHD (aa 100-219). NMR data were processed and analyzed using NMRPipe as previously described, with the apparent Kds being determined by a nonlinear least-squares analysis and a 1:1 stoichiometry in GraphPad Prism using the equation:2 Δδ=ΔδmaxL+P+Kd−L+P+Kd^2−4PL/2P Where [L] is the concentration of the peptide, [P] is concentration of the protein, Δδ is the observed chemical shift change, and Δδ max is the normalized chemical shift change at saturation. Normalized chemical shift changes were calculated using the equation δ=ΔδH^2+(ΔδN/5)^2 (3), where Δδ is the change in chemical shift in parts per million (ppm).

Series [1] concerns the molecule itself. Briefly: crystal structure; Taf14ET co-crystallized with Yng1EBM peptide (molar ratio 1:2.5); 40% PEG 400, 0.1 M Tris pH 8.5, 0.2 M LiSO4; 1.9 Å.
The target in series [2] is T2, Taf14FL (full length Taf14, aa 1-244) (S. cerevisiae, UniProt P35189 1-244).
T2 construct: Taf14, S. cerevisiae, UniProt P35189, aa 1-244; uniformly 15N-labelled for NMR; also called transcription initiation factor subunit 14
T2 sequence (looked up): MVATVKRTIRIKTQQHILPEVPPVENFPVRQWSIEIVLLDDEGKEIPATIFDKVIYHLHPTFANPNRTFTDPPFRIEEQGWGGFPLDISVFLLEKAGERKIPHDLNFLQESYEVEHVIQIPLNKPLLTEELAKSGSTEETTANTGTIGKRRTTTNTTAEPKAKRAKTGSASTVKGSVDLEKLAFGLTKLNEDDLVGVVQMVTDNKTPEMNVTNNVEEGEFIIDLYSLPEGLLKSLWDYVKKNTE
As to the kind of experiment: other fluorescence titration; tryptophan fluorescence of Taf14FL with Yng1EBM in the presence of H3K9cr peptide at a 1:10 Taf14FL:H3K9cr molar ratio; apparent Kd, 1:1 stoichiometry. The note with it: both partners purified.

The next series addresses T3, His-Taf14FL (aa 1-244) (S. cerevisiae, UniProt P35189 1-244, labeled using a His-Tag Labeling Kit RED-tris-NTA (2nd Generation)).
T3 construct: Taf14, S. cerevisiae, UniProt P35189, aa 1-244; His-tagged form used for MST; source: E. coli Rosetta-2 (DE3) pLysS, purified (Ni-NTA, SEC)
T3 sequence (looked up): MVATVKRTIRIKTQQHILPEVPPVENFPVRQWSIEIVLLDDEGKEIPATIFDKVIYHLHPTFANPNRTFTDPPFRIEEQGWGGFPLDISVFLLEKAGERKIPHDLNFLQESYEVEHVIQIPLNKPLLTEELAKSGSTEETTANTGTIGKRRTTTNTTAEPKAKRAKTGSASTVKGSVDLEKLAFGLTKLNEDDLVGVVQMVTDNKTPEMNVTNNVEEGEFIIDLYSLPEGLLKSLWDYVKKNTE
Briefly: MST; His-tagged Taf14 labeled with RED-tris-NTA, kept at 10 nM; unlabeled peptide added stepwise; 20 mM Tris-HCl pH 7.5, 150 mM NaCl, 2.5 mM DTT or 0-0.2 mM TCEP; apparent Kd, 1:1 stoichiometry. The note with it: both partners purified.

Series [3] deals with T2, Taf14FL (full length Taf14, aa 1-244). Briefly: other fluorescence titration; tryptophan fluorescence, 25 °C; 1 μM Taf14ET or Taf14FL, increasing peptide; 50 mM Tris-HCl pH 6.8 or 7.5, 150 mM NaCl, 1 mM DTT or 0.2 mM TCEP; excitation 295 nm; apparent Kd, 1:1 stoichiometry. To be noted: both partners purified.
For series [4], the target named is B5. Described as above. The note with it: both partners purified.
Series [5] deals with B5. Briefly: NMR titration; 1H,15N HSQC of 0.05-0.2 mM 15N-labeled Taf14 proteins, 298 K, unlabeled peptide or Yng1EBM-PHD added; Tris-HCl or PBS, pH 6.6-7.5; apparent Kd from CSPs, 1:1 stoichiometry. To be noted: both partners purified.
Series [6] has as its target T4, Taf14FL (full length Taf14, aa 1-244) (S. cerevisiae), P35189.
T4 chain: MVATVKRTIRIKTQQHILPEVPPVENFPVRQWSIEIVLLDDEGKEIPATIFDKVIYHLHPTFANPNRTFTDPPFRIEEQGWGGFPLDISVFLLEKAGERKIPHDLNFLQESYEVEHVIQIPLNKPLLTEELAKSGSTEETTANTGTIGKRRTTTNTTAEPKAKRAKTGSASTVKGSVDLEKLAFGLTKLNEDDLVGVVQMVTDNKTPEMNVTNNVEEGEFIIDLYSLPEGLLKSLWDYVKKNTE
As to the kind of experiment: mass photometry; Taf14FL with Yng1EBM (1:1 molar ratio), final 100 nM, room temperature, 50 mM Tris pH 7.5, 150 mM NaCl, 1 mM TCEP. To be noted: remark: other sources report otherwise.

Series [7] has as its target T5, Yng1_(EBM-PHD) (aa 100-219 of Yng1) (S. cerevisiae, UniProt Q08465 100-219).
T5 construct: Yng1, S. cerevisiae, UniProt Q08465, EBM coupled to the PHD finger, aa 100-219; source: E. coli Rosetta-2 (DE3) pLysS, purified
T5 sequence (looked up): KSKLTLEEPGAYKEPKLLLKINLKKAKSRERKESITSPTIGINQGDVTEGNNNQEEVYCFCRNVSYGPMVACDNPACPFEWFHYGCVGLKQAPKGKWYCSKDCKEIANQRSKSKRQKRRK
Briefly: NMR titration; 1H,15N HSQC of 0.05-0.2 mM 15N-labeled Taf14 proteins, 298 K, unlabeled peptide or Yng1EBM-PHD added; Tris-HCl or PBS, pH 6.6-7.5; apparent Kd from CSPs, 1:1 stoichiometry. The note with it: both partners purified.

Series [8] is classed as physicochemical, Saccharomyces cerevisiae. An excerpt: The S. cerevisiae Taf14FL (aa 1-244) (UniProt code P35189), Taf14YEATS (aa 1-137), Taf14ET (aa 168-243) and Yng1EBM-PHD (aa 100-219) (UniProt code Q08465) were cloned into pGEX-6P1, pET22b or pCIOX vectors. The F220R, I222R and L224R mutants of Taf14ET were generated using QuikChange II site directed mutagenesis kit (Agilent). Sequences were confirmed by DNA sequencing. All proteins were expressed in Escherichia coli Rosetta-2 (DE3) pLysS cells grown in either Terrific Broth, Luria Broth or in minimal media supplemented with ^15NH4Cl (Sigma). Protein production was induced with 0.3 mM IPTG for 18 h at 16 °C. Bacteria were harvested by centrifugation and lysed by sonication. GST-fusion proteins were purified on glutathione agarose 4B beads (Thermo Fisher Sci). The GST-tag was cleaved with either PreScission or tobacco etch virus (TEV) protease. After cleavage, Taf14FL and Taf14YEATS retained the pGEX-6P1vector-derived residues Gly and Pro. His-fusion proteins were incubated with Ni-NTA resin (ThermoFisher), washed and eluted with a gradient of imidazole. When necessary, removal of the His-tag was completed during an overnight dialysis, while incubating the protein with ULP1 protease. […]
Nuclear magnetic resonance experiments were performed at 298 K on Varian INOVA 900 MHz (for Taf14FL) and 600 MHz (for Taf14ET and Taf14YEATS) spectrometers equipped with cryogenic probes as described. […] NMR data were processed and analyzed using NMRPipe as previously described, with the apparent Kds being determined by a nonlinear least-squares analysis and a 1:1 stoichiometry in GraphPad Prism using the equation:2 Δδ=ΔδmaxL+P+Kd−L+P+Kd^2−4PL/2P Where [L] is the concentration of the peptide, [P] is concentration of the protein, Δδ is the observed chemical shift change, and Δδ max is the normalized chemical shift change at saturation. Normalized chemical shift changes were calculated using the equation δ=ΔδH^2+(ΔδN/5)^2 (3), where Δδ is the change in chemical shift in parts per million (ppm).

As for “I120D Yng1EBM: Yng1EBM peptide with I120 replaced with aspartate (EPKLLLKDNLKK)”, in the series with Taf14ET, the “binding of wild type Taf14ET judged by CSPs in 1H,15N HSQC spectra” value (from here on “binding of wild type Taf14ET judged”) is on record as “almost negligible CSPs”. Turning to “I118D Sas3EBM: Sas3EBM peptide with single point substitution I118D (SEELKVRDKYDS)”, the “binding of wild type Taf14ET judged” value with Taf14ET is “abrogated binding”. “V116D Sas3EBM: Sas3EBM peptide with single point substitution V116D (SEELKDRIKYDS)”: the “binding of wild type Taf14ET judged” value with Taf14ET is given as “abrogated binding”.

B1: Yng1EBM peptide (aa 113-124 of Yng1), Ac-EPKLLLKINLKK-NH2 (peptide)
peptide: Ac-EPKLLLKINLKK-NH2
notes: also called Yng1 peptide; source: synthetic peptide (Synpeptide)
As to B1, the “stoichiometry N” value in series [1] was 2. Also, the Kd amounted to 0.9 µM in series [2], 1.2 µM in the series with His-Taf14FL (aa 1-244), 1.1 µM in series [3] and 0.6 µM in series [4].

B2: L116D Yng1EBM peptide (aa 113-124 of Yng1) (peptide, UniProt Q08465 113-124, looked up)
peptide: EPKDLLKINLKK
notes: The wild-type peptide is Ac-...-NH2; source: peptide
On to B2, for which, in series [5], the Kd came out at 180 µM.

B3: L118D Yng1EBM peptide (aa 113-124 of Yng1) (peptide, UniProt Q08465 113-124, looked up)
peptide: EPKLLDKINLKK
notes: as for B2
As for B3, the Kd in series [5] worked out at 430 µM.

B4: Taf14FL (full length Taf14, aa 1-244), P35189 1-244 (natural protein)
chain: MVATVKRTIRIKTQQHILPEVPPVENFPVRQWSIEIVLLDDEGKEIPATIFDKVIYHLHPTFANPNRTFTDPPFRIEEQGWGGFPLDISVFLLEKAGERKIPHDLNFLQESYEVEHVIQIPLNKPLLTEELAKSGSTEETTANTGTIGKRRTTTNTTAEPKAKRAKTGSASTVKGSVDLEKLAFGLTKLNEDDLVGVVQMVTDNKTPEMNVTNNVEEGEFIIDLYSLPEGLLKSLWDYVKKNTE
Take B4: the stoichiometry N in series [6] was found to be 2. Take B5: the “stoichiometry N” value in series [1] is 2. Further, in [7], the binding result was “binds”.

B6: I222R Taf14ET: I222R mutant of Taf14ET (aa 168-243 of S. cerevisiae Taf14) (protein, UniProt P35189 168-243, looked up, variant I222R)
chain: GSASTVKGSVDLEKLAFGLTKLNEDDLVGVVQMVTDNKTPEMNVTNNVEEGEFIRDLYSLPEGLLKSLWDYVKKNT
modifications: ET domain (aa 168-243)
For the molecule B6, the “stability of mutated Taf14ET protein” value in series [8] is “unstable”.

B7: L224R Taf14ET: L224R mutant of Taf14ET (aa 168-243 of S. cerevisiae Taf14) (protein, UniProt P35189 168-243, looked up, variant L224R)
chain: GSASTVKGSVDLEKLAFGLTKLNEDDLVGVVQMVTDNKTPEMNVTNNVEEGEFIIDRYSLPEGLLKSLWDYVKKNT
modifications: ET domain (aa 168-243)
Turning to B7, the “stability of mutated Taf14ET protein” value in [8] is “unstable”.

B8: F220R Taf14ET: F220R mutant of Taf14ET (aa 168-243 of S. cerevisiae Taf14) (protein, UniProt P35189 168-243, looked up, variant F220R)
chain: GSASTVKGSVDLEKLAFGLTKLNEDDLVGVVQMVTDNKTPEMNVTNNVEEGERIIDLYSLPEGLLKSLWDYVKKNT
modifications: ET domain (aa 168-243)
With B8, in series [8], the “stability of mutated Taf14ET protein” value is “unstable”.

B9: Sas3EBM peptide (aa 111-122 of Sas3), Ac-SEELKVRIKYDS-NH2 (peptide)
peptide: Ac-SEELKVRIKYDS-NH2
notes: Sas3 (something about silencing 3), catalytic subunit of the yeast NuA3 complex, aa 111-122; also called Sas3 peptide; source: synthetic peptide (Synpeptide)
On to B9, for which the figures for the Kd in series [3] and in [4] were 21 µM and 18 µM, respectively.

B10: L114D Sas3EBM peptide (aa 111-122 of Sas3) (peptide, UniProt P34218 111-122, looked up)
peptide: SEEDKVRIKYDS
notes: Sas3, yeast, aa 111-122 with L114D; The wild-type peptide is Ac-...-NH2; source: peptide
Turning to B10, the Kd in series [5] turned out to be 540 µM.

By stoichiometry N is commonly meant a count of units in the complex or per binding partner.

Values taken from PMC11196586, “Molecular insight into interactions between the Taf14, Yng1 and Sas3 subunits of the NuA3 complex” (Nature Communications, 2024).
